To fix the notation:
B1: GLTSCR2 (parent)
chain: YNPSFEDHQTLLSAAHEVELQRQK
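Also: lentivirally expressed fusions sorted by FACS into six bins by GFP to DsRed ratio, PSI derived from sequencing read proportions per bin multiplied by bin number.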

The variants in the series derive from B1. As to the kind of experiment: protein stability index of a GFP-peptide fusion (GPS, HEK-293T) (PSI 1-6); higher = more stable. Conditions: c terminus: a fixed tail appended.
For the variant YNPSFEDHQCLLSAAHEVELQRQK [T10C], the protein stability index worked out at 3.19.

Turning to YNPSFEDHQTLGSAAHEVELQRQK [L12G], the protein stability index amounted to 4.23.

On to YNPSFEDHQTLVSAAHEVELQRQK [L12V], for which the protein stability index came out at 4.15.

For the variant YNPSFEDHQTLFSAAHEVELQRQK [L12F], the protein stability index is 2.35.

Regarding YNPSFEDHQTLQSAAHEVELQRQK [L12Q], the protein stability index was found to be 4.2.

For YNPSFEDHQTLYSAAHEVELQRQK [L12Y], the protein stability index worked out at 3.63.

For the variant YNPSFEDHQTLSSAAHEVELQRQK [L12S], the protein stability index was 4.79.

For YNPSFEDHQTLMSAAHEVELQRQK [L12M], the protein stability index amounted to 4.29.

For the variant YNPSFEDHQTLCSAAHEVELQRQK [L12C], the protein stability index was determined as 4.02.

In the case of YNPSFEDHQTLWSAAHEVELQRQK [L12W], the protein stability index stood at 1.58.

Regarding YNPSFEDHQTLLSAAHEVELVRQK [Q21V], the protein stability index was 3.28.

As for YNPSFEDHQTLLSAAHEVELKRQK [Q21K], the protein stability index amounted to 3.17.

In the case of YNPSFEDHQTLLSAAHEVELTRQK [Q21T], the protein stability index is 3.44.

As for YNPSFEDHQTLLSAAHEVELHRQK [Q21H], the protein stability index came to 2.96.

As for YNPSFEDHQTLLSAAHEVELARQK [Q21A], the protein stability index is 3.34.

As for YNPSFEDHQTLLSAAHEVELFRQK [Q21F], the protein stability index amounted to 3.06.

Take YNPSFEDHQTLLSAAHEVELYRQK [Q21Y]: the protein stability index was found to be 3.18.

Take YNPSFEDHQTLLSAAHEVELDRQK [Q21D]: the protein stability index is 4.16.

Regarding YNPSFEDHQTLLSAAHEVELSRQK [Q21S], the protein stability index turned out to be 3.96.

On to YNQSFEDHQTLLSAAHEVELQRQK [P3Q], for which the protein stability index amounted to 5.13.

Consider YNDSFEDHQTLLSAAHEVELQRQK [P3D], for which the protein stability index came to 4.32.

For the variant YNFSFEDHQTLLSAAHEVELQRQK [P3F], the protein stability index was determined as 4.06.

For the variant YNCSFEDHQTLLSAAHEVELQRQK [P3C], the protein stability index came out at 3.37.

For YNISFEDHQTLLSAAHEVELQRQK [P3I], the protein stability index stood at 3.82.

On to YNKSFEDHQTLLSAAHEVELQRQK [P3K], for which the protein stability index was 4.3.

Consider YNESFEDHQTLLSAAHEVELQRQK [P3E], for which the protein stability index came out at 5.06.

For the variant YNASFEDHQTLLSAAHEVELQRQK [P3A], the protein stability index came to 4.25.

As to YNHSFEDHQTLLSAAHEVELQRQK [P3H], the protein stability index is 4.67.

Turning to YNPSQEDHQTLLSAAHEVELQRQK [F5Q], the protein stability index was 4.62.

On to YNPSGEDHQTLLSAAHEVELQRQK [F5G], for which the protein stability index is 4.06.

Turning to YNPSWEDHQTLLSAAHEVELQRQK [F5W], the protein stability index was found to be 3.07.

Regarding YNPSPEDHQTLLSAAHEVELQRQK [F5P], the protein stability index worked out at 4.02.

As for YNPSCEDHQTLLSAAHEVELQRQK [F5C], the protein stability index was found to be 4.

With YNPSHEDHQTLLSAAHEVELQRQK [F5H], the protein stability index was determined as 4.09.

In the case of YNPSIEDHQTLLSAAHEVELQRQK [F5I], the protein stability index came out at 4.07.

On to YNPSNEDHQTLLSAAHEVELQRQK [F5N], for which the protein stability index was found to be 4.43.

For YNPSFEDHQTLLSAAHEVESQRQK [L20S], the protein stability index was determined as 4.26.

Consider YNPSFEDHQTLLSAAHEVETQRQK [L20T], for which the protein stability index is 4.39.

As to YNPSFEDHQTLLSAAHEVEKQRQK [L20K], the protein stability index stood at 4.44.

YNPSFEDHQTLLSAAHEVEDQRQK [L20D]: the protein stability index is 4.29.

YNPSFEDHQTLLSAAHEVEAQRQK [L20A]: the protein stability index stood at 4.04.

For the variant YNPSFEDHQTLLSAAHEVEMQRQK [L20M], the protein stability index was 3.67.

For YNPSFEDHQTTLSAAHEVELQRQK [L11T], the protein stability index is 5.29.

As to YNPSFEDHQTVLSAAHEVELQRQK [L11V], the protein stability index was determined as 3.98.

For the variant YNPSFEDHQTILSAAHEVELQRQK [L11I], the protein stability index turned out to be 2.96.

Regarding YNPSFEDHQTWLSAAHEVELQRQK [L11W], the protein stability index was determined as 2.38.

Turning to YNPSFEDHQTKLSAAHEVELQRQK [L11K], the protein stability index was found to be 4.71.

For the variant YNPSFEDHQTPLSAAHEVELQRQK [L11P], the protein stability index was determined as 4.92.

On to YNPSFEDHQTCLSAAHEVELQRQK [L11C], for which the protein stability index is 4.26.

YNPSFEDHQTALSAAHEVELQRQK [L11A]: the protein stability index came to 4.7.

As to YNPSFNDHQTLLSAAHEVELQRQK [E6N], the protein stability index is 3.33.

With YNPSFQDHQTLLSAAHEVELQRQK [E6Q], the protein stability index was determined as 2.58.

As for YNPSFHDHQTLLSAAHEVELQRQK [E6H], the protein stability index stood at 3.18.

As to YNPSFPDHQTLLSAAHEVELQRQK [E6P], the protein stability index was determined as 3.76.

For the variant YNPSFEDHQTLLSAQHEVELQRQK [A15Q], the protein stability index was determined as 3.82.

Consider YNPSFEDHQTLLSATHEVELQRQK [A15T], for which the protein stability index worked out at 3.75.

Consider YNPSFEDHQTLLSAWHEVELQRQK [A15W], for which the protein stability index stood at 2.3.

YNPSFEDHQTLLSACHEVELQRQK [A15C]: the protein stability index turned out to be 3.3.

For YNPSFEYHQTLLSAAHEVELQRQK [D7Y], the protein stability index worked out at 3.52.

On to YNPSFEPHQTLLSAAHEVELQRQK [D7P], for which the protein stability index worked out at 4.13.

For YNPSFEKHQTLLSAAHEVELQRQK [D7K], the protein stability index is 3.62.

In the case of YNPSFETHQTLLSAAHEVELQRQK [D7T], the protein stability index was 3.55.

As for YNPSFEEHQTLLSAAHEVELQRQK [D7E], the protein stability index was found to be 3.46.

Turning to YNPSFEIHQTLLSAAHEVELQRQK [D7I], the protein stability index was 3.21.

As for YNPSFECHQTLLSAAHEVELQRQK [D7C], the protein stability index is 4.08.

On to YNPSFEFHQTLLSAAHEVELQRQK [D7F], for which the protein stability index was determined as 2.81.

On to NNPSFEDHQTLLSAAHEVELQRQK [Y1N], for which the protein stability index was 4.71.

As to DNPSFEDHQTLLSAAHEVELQRQK [Y1D], the protein stability index was found to be 5.25.

Consider RNPSFEDHQTLLSAAHEVELQRQK [Y1R], for which the protein stability index came out at 5.37.

TNPSFEDHQTLLSAAHEVELQRQK [Y1T]: the protein stability index is 4.67.

Regarding INPSFEDHQTLLSAAHEVELQRQK [Y1I], the protein stability index is 4.74.

As to ANPSFEDHQTLLSAAHEVELQRQK [Y1A], the protein stability index was 4.93.

For the variant MNPSFEDHQTLLSAAHEVELQRQK [Y1M], the protein stability index was found to be 4.96.

As for LNPSFEDHQTLLSAAHEVELQRQK [Y1L], the protein stability index came to 5.03.

Turning to WNPSFEDHQTLLSAAHEVELQRQK [Y1W], the protein stability index is 4.16.

Turning to GNPSFEDHQTLLSAAHEVELQRQK [Y1G], the protein stability index is 5.36.

For the variant HNPSFEDHQTLLSAAHEVELQRQK [Y1H], the protein stability index was found to be 5.16.

For CNPSFEDHQTLLSAAHEVELQRQK [Y1C], the protein stability index was found to be 4.78.

Regarding YNPSFEDHETLLSAAHEVELQRQK [Q9E], the protein stability index is 4.45.

Take YNPSFEDHNTLLSAAHEVELQRQK [Q9N]: the protein stability index stood at 4.1.

YNPSFEDHLTLLSAAHEVELQRQK [Q9L]: the protein stability index came out at 3.11.

For YNPSFEDHRTLLSAAHEVELQRQK [Q9R], the protein stability index was 3.13.

Turning to YNPSFEDHDTLLSAAHEVELQRQK [Q9D], the protein stability index came to 4.5.

As to YNPSFEDHPTLLSAAHEVELQRQK [Q9P], the protein stability index stood at 4.08.

Consider YNPSFEDHYTLLSAAHEVELQRQK [Q9Y], for which the protein stability index was determined as 3.36.

Turning to YNPSFEDHGTLLSAAHEVELQRQK [Q9G], the protein stability index was found to be 4.42.

As to YNPSFEDHQTLLSAAHCVELQRQK [E17C], the protein stability index came to 2.88.

Regarding YNPSFEDHQTLLSAAHSVELQRQK [E17S], the protein stability index is 3.43.

YNPSFEDHQTLLSAAHFVELQRQK [E17F]: the protein stability index is 2.45.

Turning to YNPSFEDHQTLLSAAHNVELQRQK [E17N], the protein stability index turned out to be 3.33.

For the variant YNPSFEDHQTLLSAAHPVELQRQK [E17P], the protein stability index was 3.33.

Turning to YNPSFEDHQTLLSAAHQVELQRQK [E17Q], the protein stability index amounted to 2.94.

With YNPSFEDHQTLLSAAHMVELQRQK [E17M], the protein stability index came to 3.29.

Take YNPSFEDHQTLLSAAHIVELQRQK [E17I]: the protein stability index was found to be 3.03.

These data come from the supplement of paper PMC10567573.
